Data taken from PMC3918043.

Target: Sp1 (human, UniProt P08047 1-785)
Experiment: EMSA

Sequence of Sp1 (P08047 whole entry): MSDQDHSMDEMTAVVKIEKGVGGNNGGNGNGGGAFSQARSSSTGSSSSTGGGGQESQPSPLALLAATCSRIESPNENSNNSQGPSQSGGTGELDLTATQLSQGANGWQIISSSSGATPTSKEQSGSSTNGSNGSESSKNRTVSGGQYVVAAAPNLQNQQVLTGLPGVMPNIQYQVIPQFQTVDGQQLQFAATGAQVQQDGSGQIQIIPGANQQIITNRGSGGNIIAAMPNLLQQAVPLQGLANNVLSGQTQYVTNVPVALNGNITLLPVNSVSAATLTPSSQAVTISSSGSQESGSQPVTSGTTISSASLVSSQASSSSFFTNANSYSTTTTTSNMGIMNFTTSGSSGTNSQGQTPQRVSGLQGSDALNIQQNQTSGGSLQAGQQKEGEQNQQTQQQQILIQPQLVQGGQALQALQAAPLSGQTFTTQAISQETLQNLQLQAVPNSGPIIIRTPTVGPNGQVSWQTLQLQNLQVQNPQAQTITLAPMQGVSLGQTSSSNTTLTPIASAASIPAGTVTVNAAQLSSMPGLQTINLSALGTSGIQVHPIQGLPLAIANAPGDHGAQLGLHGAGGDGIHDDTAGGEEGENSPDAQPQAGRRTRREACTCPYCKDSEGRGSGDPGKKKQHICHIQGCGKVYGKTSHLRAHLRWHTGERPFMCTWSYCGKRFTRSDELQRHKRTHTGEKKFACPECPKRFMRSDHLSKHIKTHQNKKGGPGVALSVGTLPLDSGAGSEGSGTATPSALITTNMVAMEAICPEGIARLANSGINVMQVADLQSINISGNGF

Row | Binder | binding result
1 | wtANF-Sp-s4 (dsDNA) DNA 1: GACATCTAGGGTGGGGGTGGGCTGTCTGG DNA 2: CCAGACAGCCCACCCCCACCCTAGATGTC | binds
2 | wtANF-Sp-s1 (dsDNA) DNA 1: GTGACAGAATGGGGAGGGTTCCAGCTCT DNA 2: AGAGCTGGAACCCTCCCCATTCTGTCAC | binds
3 | wtANF-Sp-s2 (dsDNA) DNA 1: TGAGGGTCTGGGGGAGGGAGGGTTACTGGAG DNA 2: CTCCAGTAACCCTCCCTCCCCCAGACCCTCA | binds
4 | wtANF-Sp-s3 (dsDNA) DNA 1: TATTGCCTCTCCTCCCGCCCTTATTTGGAG DNA 2: CTCCAAATAAGGGCGGGAGGAGAGGCAATA | binds
